Paper PMC12350670

B1: H4-Fc (Fc fusion)
chain: ARVDQTPQTITKETGESLTINCVLRDSNCALSSTYWYRKKSGSTNEESISKGGRYVETVNSGSKSFSLRINDLTVEDSGTYRCNVYVAGMSPCLSWGDVYGDGTAVTVN
B2: NGS2405-Fc (Fc fusion)
chain: ARVDQTPQTITKETGESLTINCVLRDSNCALSFTYWYRKKSGSTNEESISKGGRYVETVNSGSKSFSLRINDLTVEDSGTYRCNVYVGGGCPHWIDVYGDGTAVTVN

Biological target: recombinant mouse fibroblast activation protein (mouse) (UniProt P97321)
Test: BLI; biotinylated bait protein (30 nM) loaded on Octet streptavidin (SAX) biosensors; serially diluted VNAR-Fc (300-0.412 nM) as analyte; PBS with 1% BSA; kinetic analysis with a bivalent analyte model

Sequence of recombinant mouse fibroblast activation protein (mouse) (P97321 whole entry): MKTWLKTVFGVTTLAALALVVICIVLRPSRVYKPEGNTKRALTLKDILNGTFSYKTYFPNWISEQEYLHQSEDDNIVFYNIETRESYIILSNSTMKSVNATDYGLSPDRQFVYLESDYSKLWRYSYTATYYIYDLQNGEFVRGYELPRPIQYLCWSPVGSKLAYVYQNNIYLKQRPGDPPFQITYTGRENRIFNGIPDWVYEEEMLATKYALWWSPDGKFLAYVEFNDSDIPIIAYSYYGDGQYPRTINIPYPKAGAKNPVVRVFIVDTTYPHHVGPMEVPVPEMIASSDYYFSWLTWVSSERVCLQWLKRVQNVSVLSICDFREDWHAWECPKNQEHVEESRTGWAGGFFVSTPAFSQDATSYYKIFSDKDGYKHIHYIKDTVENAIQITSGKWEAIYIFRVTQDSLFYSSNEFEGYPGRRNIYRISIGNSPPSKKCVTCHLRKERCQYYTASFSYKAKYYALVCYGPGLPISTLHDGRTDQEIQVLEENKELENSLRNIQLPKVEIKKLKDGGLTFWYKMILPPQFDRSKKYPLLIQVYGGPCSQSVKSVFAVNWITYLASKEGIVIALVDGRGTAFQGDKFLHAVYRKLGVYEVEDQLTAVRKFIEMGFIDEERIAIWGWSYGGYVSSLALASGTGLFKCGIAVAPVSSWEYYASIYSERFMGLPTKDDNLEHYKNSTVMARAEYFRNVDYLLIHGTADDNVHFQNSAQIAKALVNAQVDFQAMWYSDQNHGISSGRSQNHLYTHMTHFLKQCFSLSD

Row | Binder | Kd
1 | B1 | 0.0142 µM
2 | B2 | 0.0795 µM
